Data: US20160039904A1, “STABILIZED SINGLE HUMAN CD4 DOMAINS AND FUSION PROTEINS” (priority 2013, published 2016)
Like-named read-outs stand apart in the source and are kept apart here.

Legend:
[1] = target: HIV-1 Env of isolate GXE (HIV-1); experiment: cell-based or functional assay
[2] = target: HIV-1 Env of isolate NL4-3 (HIV-1); experiment: cell-based or functional assay
[3] = target: HIV-1 Env of isolate 89.6 (HIV-1); experiment: cell-based or functional assay
[4] = target: HIV-1 Env of isolate IIIB (HIV-1); experiment: cell-based or functional assay
[5] = target: HIV-1 Env of isolate 92UG037.8 (HIV-1); experiment: cell-based or functional assay
[6] = target: HIV-1 Env of isolate CM243 (HIV-1); experiment: cell-based or functional assay
[7] = target: HIV-1 Env of isolate 55815.EC3 (HIV-1); experiment: cell-based or functional assay
[8] = target: HIV-1 Env of isolate JRFL (HIV-1); experiment: cell-based or functional assay
[9] = target: HIV-1 Env of isolate BZ167.ec9 (HIV-1); experiment: cell-based or functional assay
[10] = target: HIV-1 Env of isolate Bal (HIV-1); experiment: cell-based or functional assay
[11] = target: HIV-1 Env of isolate Bal.EC1 TC (HIV-1); experiment: cell-based or functional assay
[12] = target: HIV-1 Env of isolate 57128.VRC18 (HIV-1); experiment: cell-based or functional assay
[13] = target: HIV-1 Env of isolate GS-015.EC12 (HIV-1); experiment: cell-based or functional assay
[14] = target: HIV-1 Env of isolate KNH1088.EC5 (HIV-1); experiment: cell-based or functional assay
[15] = target: HIV-1 Env of isolate AD8 (HIV-1); experiment: cell-based or functional assay
[16] = target: HIV-1 Env of isolate KNH1144.EC1 (HIV-1); experiment: cell-based or functional assay
[17] = target: HIV-1 Env of isolate R2 (HIV-1); experiment: cell-based or functional assay
[18] = target: HIV-1 Env of isolate A07412VRC12A (HIV-1); experiment: cell-based or functional assay
[19] = target: HIV-1 Env of isolate PBL286.VRC36aPV (HIV-1); experiment: cell-based or functional assay
[20] = target: HIV-1 Env of isolate CM240.EC1 (HIV-1); experiment: cell-based or functional assay
[21] = target: HIV-1 Env of isolate N1 1046.e3 PV (HIV-1); experiment: cell-based or functional assay
[22] = target: HIV-1 Env of isolate CAM0015BBY.EC3 (HIV-1); experiment: cell-based or functional assay
[23] = target: HIV-1 Env of isolate Z2Z6 (HIV-1); experiment: cell-based or functional assay
[24] = target: HIV-1 Env of isolate JRCSF (HIV-1) (UniProt P20871); experiment: cell-based or functional assay
Sequence of HIV-1 Env of isolate JRCSF (HIV-1) (P20871 32-848 limits assumed): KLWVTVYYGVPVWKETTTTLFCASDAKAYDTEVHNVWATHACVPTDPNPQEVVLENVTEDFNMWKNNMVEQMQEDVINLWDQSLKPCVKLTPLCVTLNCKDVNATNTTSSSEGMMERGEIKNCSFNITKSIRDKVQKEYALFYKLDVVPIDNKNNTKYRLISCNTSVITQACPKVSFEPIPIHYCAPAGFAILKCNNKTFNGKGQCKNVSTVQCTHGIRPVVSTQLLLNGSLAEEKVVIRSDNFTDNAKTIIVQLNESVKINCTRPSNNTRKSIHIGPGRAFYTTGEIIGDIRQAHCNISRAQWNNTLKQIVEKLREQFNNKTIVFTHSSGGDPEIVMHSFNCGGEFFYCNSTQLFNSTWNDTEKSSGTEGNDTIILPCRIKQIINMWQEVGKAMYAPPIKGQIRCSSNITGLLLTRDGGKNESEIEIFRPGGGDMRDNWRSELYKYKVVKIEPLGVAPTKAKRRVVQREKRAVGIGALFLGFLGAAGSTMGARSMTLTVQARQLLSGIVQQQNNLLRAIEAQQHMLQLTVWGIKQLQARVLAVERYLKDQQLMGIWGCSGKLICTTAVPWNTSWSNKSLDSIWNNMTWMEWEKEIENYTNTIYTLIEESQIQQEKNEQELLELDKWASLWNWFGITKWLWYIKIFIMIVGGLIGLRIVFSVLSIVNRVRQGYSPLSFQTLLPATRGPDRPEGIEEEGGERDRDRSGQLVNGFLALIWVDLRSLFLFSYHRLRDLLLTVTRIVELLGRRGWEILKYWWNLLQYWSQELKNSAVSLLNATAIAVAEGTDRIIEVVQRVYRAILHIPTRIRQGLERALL

[25] = target: HIV-1 Env of isolate GXC (HIV-1); experiment: cell-based or functional assay
gp140Con-s (HIV-1) [26] = experiment: ELISA (OD 450 nm) on Cons gp140 (gp140Con-s), sCD4Fc titrated [A]
gp140Con-s (HIV-1) [27] = target: gp140Con-s (HIV-1)
[28] = target: HIV-1 Env of isolate JRFL (HIV-1); experiment: cell-based or functional assay; remark: listed apart in the source
[29] = target: HIV-1 Env of isolate Bal (HIV-1); experiment: cell-based or functional assay; remark: listed apart in the source

Substance: VRC01 (antibody)
- IC50, neutralization of pseudotyped HIV-1 [1]: 2 nM
- IC90, neutralization of pseudotyped HIV-1 [1]: 26 nM
- IC50, neutralization of pseudotyped HIV-1 [2]: 0.25 nM
- IC90, neutralization of pseudotyped HIV-1 [2]: 2.6 nM
- IC50, neutralization of pseudotyped HIV-1 [3]: 0.37 nM
- IC50, neutralization of pseudotyped HIV-1 [4]: 0.26 nM
- IC90, neutralization of pseudotyped HIV-1 [4]: 0.83 nM
- IC50, neutralization of pseudotyped HIV-1 [5]: 0.33 nM
- IC90, neutralization of pseudotyped HIV-1 [5]: 3.8 nM
- IC50, neutralization of pseudotyped HIV-1 [6]: 0.53 nM
- IC90, neutralization of pseudotyped HIV-1 [6]: 9.5 nM
- IC50, neutralization in TZM-bl cell-based assay [7]: 0.33 nM
- IC90, neutralization in TZM-bl cell-based assay [7]: 2.6 nM
- IC50, neutralization of pseudotyped HIV-1 [8]: 0.31 nM
- IC90, neutralization of pseudotyped HIV-1 [8]: 0.82 nM
- IC90, neutralization in TZM-bl cell-based assay [9]: 31 nM
- IC50, inhibition of Env-mediated cell-cell fusion [10]: 2.6 nM
- IC50, neutralization of pseudotyped HIV-1 [10]: 0.11 nM
- IC90, inhibition of Env-mediated cell-cell fusion [10]: 24 nM
- IC90, neutralization of pseudotyped HIV-1 [10]: 0.56 nM
- IC50, neutralization in TZM-bl cell-based assay [11]: 0.39 nM
- IC90, neutralization in TZM-bl cell-based assay [11]: 5.2 nM
- IC50, neutralization in TZM-bl cell-based assay [12]: > 167 nM
- IC90, neutralization in TZM-bl cell-based assay [12]: > 167 nM
- IC50, neutralization in TZM-bl cell-based assay [13]: > 167 nM
- IC90, neutralization in TZM-bl cell-based assay [13]: > 167 nM
- IC50, neutralization in TZM-bl cell-based assay [14]: 3 nM
- IC50, neutralization of pseudotyped HIV-1 [15]: 0.36 nM
- IC90, neutralization of pseudotyped HIV-1 [15]: 4.3 nM
- IC90, neutralization in TZM-bl cell-based assay [16]: 9.5 nM
- IC50, neutralization of pseudotyped HIV-1 [17]: 0.34 nM
- IC90, neutralization of pseudotyped HIV-1 [17]: 4.4 nM
- IC50, neutralization in TZM-bl cell-based assay [18]: 1.3 nM
- IC90, neutralization in TZM-bl cell-based assay [18]: 6 nM
- IC90, neutralization in TZM-bl cell-based assay [19]: 10 nM
- IC50, neutralization in TZM-bl cell-based assay [20]: 0.66 nM
- IC50, neutralization in TZM-bl cell-based assay [21]: 4.2 nM
- IC50, neutralization in TZM-bl cell-based assay [22]: 21 nM
- IC90, neutralization in TZM-bl cell-based assay [22]: > 167 nM
- IC50, neutralization of pseudotyped HIV-1 [23]: 0.11 nM
- IC90, neutralization of pseudotyped HIV-1 [23]: 0.85 nM
- IC50, neutralization of pseudotyped HIV-1 [24]: 0.28 nM
- IC90, neutralization of pseudotyped HIV-1 [24]: 5.6 nM
- IC90, neutralization of pseudotyped HIV-1 [25]: 6.6 nM

Substance: D1D2mFc (from UniProt P01730 26-203) (Fc fusion)
- EC50 (read off the curve) (gp140Con-s (HIV-1) [26]): 0.3 nM

Substance: 2G12 (antibody)
- IC50, neutralization of pseudotyped HIV-1; '-' = No significant neutralization at the highest antibody concentration (67 nM) tested [1]: > 67 nM
- IC90, neutralization of pseudotyped HIV-1; '-' = No significant neutralization at the highest antibody concentration (67 nM) tested [1]: > 67 nM
- IC50, neutralization of pseudotyped HIV-1 [2]: 1.3 nM
- IC50, neutralization of pseudotyped HIV-1 [3]: 1.3 nM
- IC90, neutralization of pseudotyped HIV-1 [3]: 43 nM
- IC50, neutralization of pseudotyped HIV-1 [4]: 1.5 nM
- IC90, neutralization of pseudotyped HIV-1 [4]: 9.3 nM
- IC50, neutralization of pseudotyped HIV-1 [5]: 0.53 nM
- IC50, neutralization of pseudotyped HIV-1; '-' = No significant neutralization at the highest antibody concentration (67 nM) tested [6]: > 67 nM
- IC90, neutralization of pseudotyped HIV-1; '-' = No significant neutralization at the highest antibody concentration (67 nM) tested [6]: > 67 nM
- IC50, neutralization of pseudotyped HIV-1 [8]: 3 nM
- IC90, inhibition of Env-mediated cell-cell fusion [8]: 67 nM
- IC50, inhibition of Env-mediated cell-cell fusion [10]: 38 nM
- IC90, inhibition of Env-mediated cell-cell fusion [10]: > 67 nM
- IC90, neutralization of pseudotyped HIV-1 [10]: 41 nM
- IC50, neutralization of pseudotyped HIV-1 [17]: 0.68 nM
- IC90, neutralization of pseudotyped HIV-1 [17]: 4.6 nM
- IC50, neutralization of pseudotyped HIV-1 [23]: 0.7 nM
- IC50, neutralization of pseudotyped HIV-1 [24]: 0.58 nM
- IC90, neutralization of pseudotyped HIV-1 [24]: 9.3 nM
- IC50, neutralization of pseudotyped HIV-1; '-' = No significant neutralization at the highest antibody concentration (67 nM) tested [25]: > 67 nM
- IC90, neutralization of pseudotyped HIV-1; '-' = No significant neutralization at the highest antibody concentration (67 nM) tested [25]: > 67 nM

Substance: D1D2 (receptor)
- EC50 (read off the curve) of the enhancement of m36h1Fc binding (gp140Con-s (HIV-1) [27]): 10 to 100 nM

Substance: 4Dm2m (bispecific antibody)
- IC50, neutralization of pseudotyped HIV-1 [1]: 0.83 nM
- IC90, neutralization of pseudotyped HIV-1 [1]: 8.2 nM
- IC50, neutralization of pseudotyped HIV-1 [2]: 0.094 nM
- IC90, neutralization of pseudotyped HIV-1 [2]: 0.15 nM
- IC50, neutralization of pseudotyped HIV-1 [3]: < 0.021 nM
- IC90, neutralization of pseudotyped HIV-1 [3]: < 0.021 nM
- IC50, neutralization of pseudotyped HIV-1 [4]: 0.037 nM
- IC90, neutralization of pseudotyped HIV-1 [4]: 0.1 nM
- IC50, neutralization of pseudotyped HIV-1 [5]: 0.051 nM
- IC90, neutralization of pseudotyped HIV-1 [5]: 0.45 nM
- IC50, neutralization of pseudotyped HIV-1 [6]: 0.29 nM
- IC90, neutralization of pseudotyped HIV-1 [6]: 1.2 nM
- IC50, neutralization in TZM-bl cell-based assay [7]: 0.084 nM
- IC90, neutralization in TZM-bl cell-based assay [7]: 0.61 nM
- IC50, inhibition of Env-mediated cell-cell fusion [8]: 3.6 nM
- IC50, neutralization of pseudotyped HIV-1 [8]: 0.14 nM
- IC90, inhibition of Env-mediated cell-cell fusion [8]: 8.8 nM
- IC90, neutralization of pseudotyped HIV-1 [8]: 0.39 nM
- IC50, neutralization in TZM-bl cell-based assay [9]: 0.077 nM
- IC90, neutralization in TZM-bl cell-based assay [9]: 0.5 nM
- IC50, inhibition of Env-mediated cell-cell fusion [10]: 4.1 nM
- IC50, neutralization of pseudotyped HIV-1 [10]: 0.15 nM
- IC90, neutralization of pseudotyped HIV-1 [10]: 0.5 nM
- IC50, neutralization in TZM-bl cell-based assay [11]: 0.057 nM
- IC90, neutralization in TZM-bl cell-based assay [11]: 0.22 nM
- IC50, neutralization in TZM-bl cell-based assay [12]: 0.4 nM
- IC90, neutralization in TZM-bl cell-based assay [12]: 2.8 nM
- IC50, neutralization in TZM-bl cell-based assay [13]: 0.022 nM
- IC90, neutralization in TZM-bl cell-based assay [13]: 0.17 nM
- IC50, neutralization in TZM-bl cell-based assay [14]: 0.48 nM
- IC50, neutralization of pseudotyped HIV-1 [15]: 0.13 nM
- IC90, neutralization of pseudotyped HIV-1 [15]: 0.74 nM
- IC50, neutralization in TZM-bl cell-based assay [16]: 0.081 nM
- IC90, neutralization in TZM-bl cell-based assay [16]: 1 nM
- IC50, neutralization of pseudotyped HIV-1 [17]: 0.028 nM
- IC90, neutralization of pseudotyped HIV-1 [17]: 0.43 nM
- IC50, neutralization in TZM-bl cell-based assay [18]: 0.75 nM
- IC90, neutralization in TZM-bl cell-based assay [18]: 5.7 nM
- IC50, neutralization in TZM-bl cell-based assay [19]: 2 nM
- IC50, neutralization in TZM-bl cell-based assay [20]: 0.45 nM
- IC90, neutralization in TZM-bl cell-based assay [20]: 3.7 nM
- IC90, neutralization in TZM-bl cell-based assay [21]: 27 nM
- IC50, neutralization in TZM-bl cell-based assay [22]: 0.72 nM
- IC90, neutralization in TZM-bl cell-based assay [22]: 7.4 nM
- IC50, neutralization of pseudotyped HIV-1 [23]: 0.14 nM
- IC90, neutralization of pseudotyped HIV-1 [23]: 1.1 nM
- IC50, neutralization of pseudotyped HIV-1 [24]: 0.29 nM
- IC90, neutralization of pseudotyped HIV-1 [24]: 3 nM
- IC50, neutralization of pseudotyped HIV-1 [25]: 0.61 nM
- IC90, neutralization of pseudotyped HIV-1 [25]: 4 nM
- IC50, neutralization of pseudotyped HIV-1 [28]: 0.06 nM
- IC90, neutralization of pseudotyped HIV-1 [28]: 0.29 nM
- IC50, neutralization of pseudotyped HIV-1 [29]: 0.12 nM
- IC90, neutralization of pseudotyped HIV-1 [29]: 0.36 nM
